The target of test [1] is T1, centromere B (CentB) (UniProt P07199 2-599).
T1 sequence (looked up): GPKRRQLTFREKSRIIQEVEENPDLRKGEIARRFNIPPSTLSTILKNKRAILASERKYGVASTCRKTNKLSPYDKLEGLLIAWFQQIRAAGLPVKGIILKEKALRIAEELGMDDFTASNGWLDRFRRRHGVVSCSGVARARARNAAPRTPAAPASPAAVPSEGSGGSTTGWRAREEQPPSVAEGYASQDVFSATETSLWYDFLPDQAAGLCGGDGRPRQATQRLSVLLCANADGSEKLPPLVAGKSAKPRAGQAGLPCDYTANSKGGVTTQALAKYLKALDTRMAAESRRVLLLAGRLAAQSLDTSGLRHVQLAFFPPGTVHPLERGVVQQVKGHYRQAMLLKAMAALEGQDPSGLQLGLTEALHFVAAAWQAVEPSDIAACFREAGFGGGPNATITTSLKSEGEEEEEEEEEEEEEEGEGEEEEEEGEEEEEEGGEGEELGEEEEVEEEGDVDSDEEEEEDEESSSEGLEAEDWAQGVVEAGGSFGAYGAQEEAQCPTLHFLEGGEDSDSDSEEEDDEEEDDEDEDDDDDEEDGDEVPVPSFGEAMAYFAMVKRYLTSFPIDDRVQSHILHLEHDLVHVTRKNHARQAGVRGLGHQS
Briefly: AtheNA Multi-Lyte ANA, Ab at 6.25 ug/ml.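 Further: monoclonal antibodies screened for reactivity against a panel of nuclear autoantigens, with an anti-HIV and an anti-RSV monoclonal antibody serving as controls.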

For test [2], the target named is T2, 15-mer peptide GPPPPIDNGDITSFP (SEQ ID NO: 114) (human).
T2 construct: Immobilized for SPR; also called parent peptide
T2 peptide: GPPPPIDNGDITSFP
As to the kind of experiment: assay and antigen not given; Example 10, epitope mapping on the 15-mer peptide.

Test [3] deals with T1, centromere B (CentB). Briefly: AtheNA Multi-Lyte ANA, Ab at 12.5 ug/ml.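 Further: monoclonal antibodies screened for binding to a panel of nuclear autoantigens (SSA, SSB, Sm, RNP, Scl-70, Jo-1, dsDNA, CentB, histones), with anti-HIV and anti-RSV antibodies as controls.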
The next test addresses T3, Sm (sphingomyelin).
T3 construct: in an ANA panel of nuclear antigens Sm is usually the Smith ribonucleoprotein antigen; Kept, but see recheck
As to the kind of experiment: AtheNA Multi-Lyte ANA, Ab at 25 ug/ml.

Test [4] concerns the target T4, sclerosis autoantigen (Scl-70) (UniProt P11387 2-765, limits assumed).
T4 sequence (looked up): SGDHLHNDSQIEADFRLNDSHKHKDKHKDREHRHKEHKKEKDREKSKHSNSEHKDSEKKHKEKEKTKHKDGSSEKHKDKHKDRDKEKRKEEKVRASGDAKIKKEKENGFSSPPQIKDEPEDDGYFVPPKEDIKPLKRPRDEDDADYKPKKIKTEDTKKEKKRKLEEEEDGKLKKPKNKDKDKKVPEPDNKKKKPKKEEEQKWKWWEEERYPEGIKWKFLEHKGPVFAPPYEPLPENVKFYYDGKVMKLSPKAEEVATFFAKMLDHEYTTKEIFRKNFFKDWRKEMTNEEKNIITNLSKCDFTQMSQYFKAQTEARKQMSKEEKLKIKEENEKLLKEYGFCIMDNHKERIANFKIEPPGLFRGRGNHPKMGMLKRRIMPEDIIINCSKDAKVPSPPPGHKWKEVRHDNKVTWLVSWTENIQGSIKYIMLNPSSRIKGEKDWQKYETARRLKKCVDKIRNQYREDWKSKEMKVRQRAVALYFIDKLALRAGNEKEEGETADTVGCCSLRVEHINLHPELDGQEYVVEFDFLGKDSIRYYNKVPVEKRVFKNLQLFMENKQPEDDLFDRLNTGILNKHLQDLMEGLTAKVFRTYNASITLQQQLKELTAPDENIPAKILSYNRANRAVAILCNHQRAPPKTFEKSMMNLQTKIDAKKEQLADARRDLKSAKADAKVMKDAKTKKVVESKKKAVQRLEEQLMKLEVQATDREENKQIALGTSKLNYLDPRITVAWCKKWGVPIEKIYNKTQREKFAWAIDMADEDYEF
As to the kind of experiment: AtheNA Multi-Lyte ANA, Ab at 25 ug/ml.

Test [5] has as its target T5, histidine-tRNA ligase (Jo-1) (UniProt P12081 2-509).
T5 sequence (looked up): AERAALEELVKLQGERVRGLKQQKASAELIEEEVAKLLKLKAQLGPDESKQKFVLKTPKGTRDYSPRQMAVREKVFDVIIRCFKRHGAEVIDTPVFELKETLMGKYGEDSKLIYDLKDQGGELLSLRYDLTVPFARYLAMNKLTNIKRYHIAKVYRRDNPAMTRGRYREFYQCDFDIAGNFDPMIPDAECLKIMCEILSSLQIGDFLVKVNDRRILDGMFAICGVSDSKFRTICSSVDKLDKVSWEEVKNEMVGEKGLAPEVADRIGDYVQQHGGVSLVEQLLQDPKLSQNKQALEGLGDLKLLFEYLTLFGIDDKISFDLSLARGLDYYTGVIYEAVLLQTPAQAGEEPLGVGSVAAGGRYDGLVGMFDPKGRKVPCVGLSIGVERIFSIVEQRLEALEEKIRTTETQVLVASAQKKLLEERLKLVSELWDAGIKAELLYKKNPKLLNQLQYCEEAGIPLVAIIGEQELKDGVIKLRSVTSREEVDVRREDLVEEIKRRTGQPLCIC
Briefly: AtheNA Multi-Lyte ANA, Ab at 25 ug/ml.

The target of the next test is ribonucleoprotein (RNP). As to the kind of experiment: AtheNA Multi-Lyte ANA, Ab at 25 ug/ml.
The target of test [6] is systemic lupus erythematosus autoantigen SSA. As to the kind of experiment: AtheNA Multi-Lyte ANA, Ab at 25 ug/ml.
Test [7] addresses T6, systemic lupus erythematosus autoantigen SSB (UniProt P05455 1-408, limits assumed).
T6 sequence (looked up): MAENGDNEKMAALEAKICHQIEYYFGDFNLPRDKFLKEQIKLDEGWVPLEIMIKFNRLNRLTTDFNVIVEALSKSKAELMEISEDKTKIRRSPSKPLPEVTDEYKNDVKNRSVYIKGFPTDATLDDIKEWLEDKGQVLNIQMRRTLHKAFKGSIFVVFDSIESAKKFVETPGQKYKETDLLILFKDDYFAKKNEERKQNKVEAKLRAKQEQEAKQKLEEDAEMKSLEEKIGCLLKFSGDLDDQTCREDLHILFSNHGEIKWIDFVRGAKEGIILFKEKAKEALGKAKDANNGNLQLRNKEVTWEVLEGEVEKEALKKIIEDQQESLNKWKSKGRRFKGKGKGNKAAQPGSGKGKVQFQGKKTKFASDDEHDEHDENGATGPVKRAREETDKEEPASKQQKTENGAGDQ
Briefly: AtheNA Multi-Lyte ANA, Ab at 6.25 ug/ml.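 Further: monoclonal antibodies screened for reactivity against a panel of nuclear autoantigens, with an anti-HIV and an anti-RSV monoclonal antibody serving as controls.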

B1: Ab7957/293i (antibody, IgG1, V domains shown)
VH: LVESGGGVVPPGKSLRLSCAASGFTFSLYGIHWVRQAPGKGLEWVAVISYDGNTKYYTDSVKGRFTISRDNAKNTIYLQMNSLRLDDTAVYYCAKGAANSATFDFWGRGTMVTVSS
VL: MTQSPDSLTLSLGERATINCRSSRTVLYRSNNKNYLAWYQHKPGQPPKLLMSWASTRETGVPDRFSGSGSGTHFTLTITSLQPEDVAVYYCQQYYSPPWTFGQGTKVEIR
notes: Recombinant human antibody with IgG1 heavy chain backbone and kappa light chain constant; they begin at LVESGGG and MTQSP; also called Ab7957i; mAb 7957
Turning to B1, the AtheNA signal was 2 with centromere B (CentB) [1]; 2 in the test with centromere B (CentB) [3]; 3 with Sm (sphingomyelin); 2 in [4]; 4 in [5]; 4 in the test with ribonucleoprotein (RNP). Moreover, in test [6], the AtheNA signal came to 11. The same molecule showed an EC50 in [2] of 9.08 ng/mL.

B2: Ab7962/293i (antibody, V domains shown)
VH: LVESGGGLVQPGGSLRLSCAASGFTFSSYEMNWVRQAPGKGLEWVSYISSSGSTIYYADSVKGRFTISRDNAKNSLYLQMNSLRAEDTAVYYCARVEQLAPSPYMDVWGKGTTVTVSS
VL: MTQSLDSLTVSLGERATINCKSSQSLLYTSNNKNYLAWYQQKSGQPPKLLIYWASIRDSGVPDRFSGSGSATDFTLTINNLQAEDVAVYFCQQYYKTPLTFGGGTKVEVR
notes: Recombinant human antibody with IgG1 heavy chain backbone and kappa light chain constant (IgM in the donor B cell); they begin at LVESGGG and MTQSL; also called clone 27; pH007962/pK005996
Consider B2, for which the AtheNA signal in [7] was 1; with centromere B (CentB) [1] it was 1; with centromere B (CentB) [3], 2.

B3: Ab7968 (antibody, IgG1, V domains shown)
VH: LVESGGGVVQPGRSLRLSCAASGFTFSRYGMHWVRQAPGKGLEWVAVMSYDGSTKYYADSVKGRFAISRDNPKNTLFLQMNSLRPDDTAVYYCAKGGAAAAVMDVWGKGTTVTVSS
VL: MTQSPDSLTVSLGERATISCKSSQRLLYSSNNKNYLAWYQQKPGQPPKLLMYWASTRESGVPDRFSGSGSGTDFSLTISSLQAEDVAVYYCQQYYNPPWTFGQGTKVEVK
notes: Recombinant human antibody with IgG1 heavy chain backbone and kappa light chain constant; they begin at LVESGGG and MTQSP; also called mAb 7968; mAb7968
In the case of B3, the AtheNA signal in [7] came out at 7; with Sm (sphingomyelin), 5; in test [4] it was 3; in [5], 3; in the test with ribonucleoprotein (RNP), 8; in test [6], 8. Also, in test [2], it took 7.98 ng/mL to reach a half-maximal effect (EC50).

In general, EC50 refers to the concentration giving half of the maximal effect. A higher EC50 goes with a less potent agent.

The values are drawn from patent publication US20190315842A1 (DUKE UNIVERSITY, published 2019).
